According to publication PMC3176149, “Application of Celluspots peptide arrays for the analysis of the binding specificity of epigenetic reading domains to modified histone tails” (BMC Biochemistry, 2011):
pKd: −log10 of the molar value.

Molecular target: FITC-coupled H3K9me3-S10ph peptide (amino acids 1-19) (UniProt P68431)
Assay: fluorescence polarisation; fluorescence depolarization in solution, purified FITC-coupled H3 1-19 peptides, Varian Carry Eclipse spectrophotometer, as described [40]; fit to a binary binding equilibrium

pKd: < 4.30
Substance: MPP8 Chromo domain (M-phase phosphoprotein 8), GST fusion (from UniProt Q99549 58-112) (domain or fragment)
